Reference: patent US20080219974A1 (published 2008)
Positions count from the first letter of the chain named.

T1: His-tagged HM1.24 antigen, residues N49-A163 of the extracellular domain (human, UniProt Q10589 49-163)
T1 sequence: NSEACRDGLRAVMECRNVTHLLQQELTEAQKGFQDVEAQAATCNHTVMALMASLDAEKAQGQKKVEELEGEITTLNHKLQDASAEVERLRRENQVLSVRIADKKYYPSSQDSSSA

B1: HM1.24_H1.1 heavy chain variant with HM1.24_L4 light chain (antibody, human IgG1, kappa, V domains shown)
VH: QVQLVQSGAEVKKPGASVKVSCKASGYTFTPYWMQWVRQAPGQGLEWMGSIFPGEGDTRYSQSFQGQVTISADKSISTAYMELSRLRSDDTAVYYCARGLRRGGYYFDYWGQGTLVTVSS
VL: DIVMTQSPLSLPVTLGQPASISCKASQDVNTAVAWYLQKPGKSPKLLIYSASNRYTGVPDRITGSGSGTDFTLKISRVEAEDVGVYYCQQHYSTPFTFGSGTKLEIKR
B2: HM1.24_H2.1 heavy chain variant with HM1.24_L4 light chain (antibody, human IgG1, kappa, V domains shown)
VH: EVQLVESGGGLVKPGGSLRLSCAASGYTFTPYWMQWVRQAPGKGLEWMGSIFPGEGDTRYSQSFQGQVTISADKSISTAYMELSSLRSEDTAVYYCARGLRRGGYYFDYWGQGTLVTVSS
VL: B1 VL
B3: HM1.24_H1.4 heavy chain variant with HM1.24_L4 light chain (antibody, human IgG1, kappa, V domains shown)
VH: B1 VH with E55D, G56A
VL: B1 VL
B4: HM1.24_H1.2 heavy chain variant with HM1.24_L4 light chain (antibody, human IgG1, kappa, V domains shown)
VH: B1 VH with E55S
VL: B1 VL
B5: HM1.24_H2.3 heavy chain variant with HM1.24_L4 light chain (antibody, human IgG1, kappa, V domains shown)
VH: B2 VH with E55D, G56S
VL: B1 VL
B6: HM1.24_H2.4 heavy chain variant with HM1.24_L4 light chain (antibody, human IgG1, kappa, V domains shown)
VH: B2 VH with E55D, G56A
VL: B1 VL
B7: HM1.24_H1.3 heavy chain variant with HM1.24_L4 light chain (antibody, human IgG1, kappa, V domains shown)
VH: B1 VH with E55D, G56S
VL: B1 VL
B8: HM1.24_H1L2 (antibody, human IgG1, kappa, V domains shown)
VH: B1 VH with E55D
VL: DIVMTQSPSSLSASVGDRVTITCQASQDVNTAVAWYQQKPDQSPKLLIYSASNRYTGVPDRITGSGSGTDFTLTISSLQAEDVAVYYCQQHYSTPFTFGSGTKLEIKR
B9: HM1.24_H2L2 (antibody, human IgG1, kappa, V domains shown)
VH: B2 VH with E55D
VL: B8 VL
B10: HM1.24_H0L0 (parent antibody in the flow cytometry screen of Example 3) (antibody, V domains shown)
VH: QVQLQQSGAELARPGASVKLSCKASGYTFTPYWMQWVKQRPGQGLEWIGSIFPGDGDTRYSQKFKGKATLTADKSSSTAYMQLSILAFEDSAVYYCARGLRRGGYYFDYWGQGTTLTVSS
VL: DIVMTQSHKFMSTSVGDRVSITCKASQDVNTAVAWYQQKPGQSPKLLIYSASNRYTGVPDRITGSGSGTDFTFTISSVQAEDLALYYCQQHYSTPFTFGSGTKLEIK
B11: HM1.24_H0L0_IgG1_WT (antibody, V domains shown)
VH: B10 VH
VL: DIVMTQSHKFMSTSVGDRVSITCKASQDVNTAVAWYQQKPGQSPKLLIYSASNRYTGVPDRITGSGSGTDFTFTISSVQAEDLALYYCQQHYSTPFTFGSGTKLEIKR

The binders below were run against T1, His-tagged HM1.24 antigen, residues … (assay: not given).

Binding result, binds:
B1, B2, B3, B4, B5, B6, B7

These binders were tested against T2, Human HM1.24 on RPMI 8226 multiple myeloma cells (human, UniProt Q10589 1-161) (assay: flow cytometry on HM1.24+ RPMI 8226 cells).
T2 sequence (Q10589 1-161 limits assumed): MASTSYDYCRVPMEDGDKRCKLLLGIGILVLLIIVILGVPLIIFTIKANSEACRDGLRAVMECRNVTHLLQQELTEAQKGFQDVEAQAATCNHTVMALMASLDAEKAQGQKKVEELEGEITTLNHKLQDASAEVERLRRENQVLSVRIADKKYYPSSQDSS

Binding result, binds:
B8, B9, B10

What follows are binders tested against T2, Human HM1.24 on RPMI 8226 multiple … (assay: flow cytometry on RPMI 8226 multiple myeloma cells, R-PE anti-human IgG F).

Binding result, binds:
B11
